Test results from patent US6277622.

Target: recombinant tropoelastin (human) (UniProt P15502)

**Q.** For “recombinant human lysyl oxidase derived from the plasmid p3dL^m2 (enzyme)”, which percentage of total lysine in the precipitate (amino acid analysis) after 2 hrs at 37 C; formation of insoluble protein is on record?
**A.** The percentage of total lysine in the precipitate (amino acid analysis) after 2 hrs at 37 C; formation of insoluble protein was 2.5 % lysine.
